Legend:
[1] = target: Influenza A H5N1 virus (IAV H5N1) (target of the Octet assay of Example 18; protein not specified) (Influenza A H5N1 virus); assay: BLI (Octet Red 96), binding affinity to IAV H5N1
[2] = target: RSV-F (amino acids 1-529), (Extracellular Domain) protein (His tag), ABIN2006856 (respiratory syncytial virus) (UniProt P03420); assay: ELISA, RSV F coated, read on SpectroMax
[3] = target: RSV-F (amino acids 1-529), (Extracellular Domain) protein (His tag), ABIN2006856 (respiratory syncytial virus) (UniProt P03420); assay: ELISA, RSV F coated, read on Varioskan plate reader
[4] = target: SARS-CoV-2 (antigen of the ELISA of Example 17; protein not specified) (SARS-CoV-2); assay: ELISA by the method of Example 15, SARS-CoV-2 antigen
[5] = target: RSV-F (amino acids 1-529), (Extracellular Domain) protein (His tag), ABIN2006856 (respiratory syncytial virus) (UniProt P03420); assay: ELISA, RSV F coated, anti-human IgG-HRP
[6] = target: Recombinant RSV F protein (Octet assays of Examples 14 and 16) (respiratory syncytial virus, UniProt P03420 26-529)

SEQ ID NO: 113, b1-Fc (NRP1, WT, single b1) (Fc fusion)
Kd [1]: 18.9 nM
EC50 [2]: 323 nM
EC50 [3]: 372 nM

SEQ ID NO: 121, b1b1-b1b1-Fc (NRP1, WT, quadruple b1) (Fc fusion)
Kd [1]: 0.00782 nM
EC50 [2]: 5.9 nM
EC50 [3]: 5.65 nM

SEQ ID NO: 122, b1b2-Fc (NRP1, WT, single b1b2) (Fc fusion)
Kd [1]: 17.5 nM
EC50 [4]: 3.09 nM
EC50 [5]: 23.3 nM

SEQ ID NO: 138, b1b2-b1b2-Fc (NRP1, WT, double b1b2) (Fc fusion)
EC50 [4]: 110 nM

SEQ ID NO: 154, b1b2-Fc (NRP2, WT, single b1b2) (Fc fusion)
EC50 [5]: 185 nM

SEQ ID NO: 191, b1b2-Fc (NRP1, WT) (Fc fusion)
EC50 [2]: 95.7 nM
EC50 [3]: 91 nM

SEQ ID NO: 192, b1b2-Fc-ACE2-1 (NRP1 b1b2 at the N-terminus, alpha domain of ACE2 at the C-terminus) (Fc fusion)
EC50 [5]: 53.9 nM

SEQ ID NO: 203, b1b2-Fc-ACE2 (NRP1, WT, ACE2 alpha domain) (Fc fusion)
EC50 [5]: 69.7 nM

SEQ ID NO: 205, b1b2-Fc-ACE2 (NRP1, WT, repeated ACE2 alpha domain) (Fc fusion)
EC50 [5]: 39.2 nM

SEQ ID NO: 206, Nrp1(b1)/Nrp2(b2)-Fc (WT) (Fc fusion)
EC50 [5]: 22.7 nM

SEQ ID NO: 207, Nrp2(b1)/Nrp1(b2)-Fc (WT) (Fc fusion)
EC50 [5]: 17.1 nM

B1: SEQ ID NO: 113, b1-Fc (NRP1, WT, single b1) (Fc fusion)
chain: EDFKCMEALGMESGEIHSDQITASSQYSTNWSAERSRLNYPENGWTPGEDSYREWIQVDLGLLRFVTAVGTQGAISKETKKKYYVKTYKIDVSSNGEDWITIKEGNKPVLFQGNTNPTDVVVAVFPKPLITRFVRIKPATWETGISMRFEVYGCGGGGSGGGGSEPKSCDKTHTCPPCPAPELLGGPSVFLFPPKPKDTLMISRTPEVTCVVVDVSHEDPEVKFNWYVDGVEVHNAKTKPREEQYNSTYRVVSVLAVLHQDWLNGKEYKCKVSNKALPAPIEKTISKAKGQPREPQVYTLPPSRDELTKNQVSLTCLVKGFYPSDIAVAWESNGQPENNYKTTPPVLDSDGSFFLYSKLTVDKSRWQQGNVFSCSVMHEALHAHYTQKSLSLSPGK
Kd [6]: < 1 nM

B2: SEQ ID NO: 121, b1b1-b1b1-Fc (NRP1, WT, quadruple b1) (Fc fusion)
chain: EDFKCMEALGMESGEIHSDQITASSQYSTNWSAERSRLNYPENGWTPGEDSYREWIQVDLGLLRFVTAVGTQGAISKETKKKYYVKTYKIDVSSNGEDWITIKEGNKPVLFQGNTNPTDVVVAVFPKPLITRFVRIKPATWETGISMRFEVYGCKITDYPCMEALGMESGEIHSDQITASSQYSTNWSAERSRLNYPENGWTPGEDSYREWIQVDLGLLRFVTAVGTQGAISKETKKKYYVKTYKIDVSSNGEDWITIKEGNKPVLFQGNTNPTDVVVAVFPKPLITRFVRIKPATWETGISMRFEVYGCGGGGSGGGGSCMEALGMESGEIHSDQITASSQYSTNWSAERSRLNYPENGWTPGEDSYREWIQVDLGLLRFVTAVGTQGAISKETKKKYYVKTYKIDVSSNGEDWITIKEGNKPVLFQGNTNPTDVVVAVFPKPLITRFVRIKPATWETGISMRFEVYGCKITDYPCMEALGMESGEIHSDQITASSQYSTNWSAERSRLNYPENGWTPGEDSYREWIQVDLGLLRFVTAVGTQGAISKETKKKYYVKTYKIDVSSNGEDWITIKEGNKPVLFQGNTNPTDVVVAVFPKPLITRFVRIKPATWETGISMRFEVYGCGGGGSGGGGSEPKSCDKTHTCPPCPAPELLGGPSVFLFPPKPKDTLMISRTPEVTCVVVDVSHEDPEVKFNWYVDGVEVHNAKTKPREEQYNSTYRVVSVLAVLHQDWLNGKEYKCKVSNKALPAPIEKTISKAKGQPREPQVYTLPPSRDELTKNQVSLTCLVKGFYPSDIAVAWESNGQPENNYKTTPPVLDSDGSFFLYSKLTVDKSRWQQGNVFSCSVMHEALHAHYTQKSLSLSPGK
Kd [6]: < 1 nM
